Test results published in article PMC4030946, “Enantiocomplementary Yarrowia lipolytica Oxidoreductases: Alcohol Dehydrogenase 2 and Short Chain Dehydrogenase/Reductase” (Biomolecules, 2013).

T1: YlSDR (Yarrowia lipolytica, UniProt Q6CEE9)
T1 construct: gene YALI0B16192g; full length, N-terminal His-tag (vector pK470), E. coli BL21 (DE3) Gold, purified
T1 sequence (Q6CEE9 1-278): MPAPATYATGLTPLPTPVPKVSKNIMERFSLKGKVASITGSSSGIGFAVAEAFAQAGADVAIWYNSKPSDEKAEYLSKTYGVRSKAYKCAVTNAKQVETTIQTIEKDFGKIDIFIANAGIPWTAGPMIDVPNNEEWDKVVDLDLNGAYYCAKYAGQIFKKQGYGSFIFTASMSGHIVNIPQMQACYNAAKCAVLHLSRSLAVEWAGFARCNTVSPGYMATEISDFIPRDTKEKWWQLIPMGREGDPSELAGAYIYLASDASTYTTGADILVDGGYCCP


How the values were obtained:
YlSDR = target: T1, YlSDR; experiment: chiral GC of product after acetylation; format: biochemical; conditions: reduction to (R)-2-octanol; NADPH 11 mM; citrate 50 mM, pH 5.0, 28 °C; Tween 20
purified protein [1] = substrate: CCCCCC[C@H](C)O; experiment: purified protein; format: biochemical, Yarrowia lipolytica; conditions: oxidation, NAD+ co-substrate, potassium phosphate 50 mM, 40 mM KCl, pH 8.5, 28 °C, Tween 20
purified protein [2] = substrate: CCCCCCC(C)=O; experiment: purified protein; format: biochemical, Yarrowia lipolytica; conditions: reduction, NADH co-substrate, potassium phosphate 50 mM, 40 mM KCl, pH 7.0, 28 °C, Tween 20
purified protein [3] = substrate: NC(=O)c1ccc[n+]([C@@H]2O[C@H](COP(=O)(O)OP(=O)(O)OC[C@H]3O[C@@H](n4cnc5c(N)ncnc54)[C@H](O)[C@@H]3O)[C@@H](O)[C@H]2O)c1; experiment: purified protein; format: biochemical, Yarrowia lipolytica; conditions: oxidation of 10 mM (S)-2-octanol, potassium phosphate 50 mM, 40 mM KCl, pH 8.5, 28 °C, varied: cofactor

| Molecule | chiral GC of product after acetylation (YlSDR) | Km (purified protein [1]) [mM] | kcat (purified protein [1]) [s⁻¹] | kcat/Km (purified protein [1]) [M⁻¹ s⁻¹] | Km (purified protein [2]) [mM] | kcat (purified protein [2]) [s⁻¹] | kcat/Km (purified protein [2]) [M⁻¹ s⁻¹] | Km (purified protein [3]) [mM] | kcat (purified protein [3]) [s⁻¹] | kcat/Km (purified protein [3]) [M⁻¹ s⁻¹] |
| --- | --- | --- | --- | --- | --- | --- | --- | --- | --- | --- |
| CCCCCCC(C)=O [2-octanone] | (R)-2-octanol was prepared under the following conditions: purified YlSDR in citrate buffer |  |  |  |  |  |  |  |  |  |
| YlADH2 (Yarrowia lipolytica CLIB122) (protein) MSAPVIPKTQKGVIFETSGGPLMYKDIPVPVPADDEILVNVKFSGVCHTDLHAWKGDWPLDTKLPLVGGHEGAGVVVAKGKNVDTFEIGDYAGIKWINKACYTCEFCQVAAEPNCPNATMSGYTHDGSFQQYATANAVQAAHIPKNCDLAEIAPILCAGITVYKALKTAAILAGQWVAVTGAGGGLGTLAVQYAKAMGYRVLAIDTGADKEKMCKDLGAEVFIDFAKTKDLVKDVQEATKGGPHAVINVSVSEFAVNQSIEYVRTLGTVVLVGLPAGAVCKSPIFQQVARSIQIKGSYVGNRADSQEAIEFFSRGLVKSPIIIIGLSELEKVYKLMEEGKIAGRYVLDTSK |  | 1.42 ± 0.03 | 1.05 ± 0.52 | 740 ± 500 | 5.38 ± 0.76 | 0.56 ± 0.04 | 100 ± 160 | 17.8 ± 1.26 | 3.43 ± 0.05 | 190 ± 70 |
